# Data taken from patent publication US20040219554, “Dna binding protein” (published 2004).
# T1: DUE-B (Homo sapiens, UniProt Q8TEA8 SEQ:1-209)
# T1 sequence: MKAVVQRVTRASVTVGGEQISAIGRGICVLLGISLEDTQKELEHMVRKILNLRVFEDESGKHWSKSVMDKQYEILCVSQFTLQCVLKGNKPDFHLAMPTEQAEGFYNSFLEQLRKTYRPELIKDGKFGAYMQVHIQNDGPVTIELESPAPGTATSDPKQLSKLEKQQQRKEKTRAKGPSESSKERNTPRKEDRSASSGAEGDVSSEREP
# B1: DUE 30-mer probe (dsDNA)
# DNA 1: GGAATATACATTATATATTAAATATAGATC
# DNA 2: GATCTATATTTAATATATAATGTATATTCC
# B2: c-myc DUE/ARS 123 bp probe (dsDNA)
# DNA 1: GAAGGAATTCATGAGAAGAATGTTTTTTGTTTTTCATGCCGTGGAATAACACAAAATAAAAAATCCCGAGGGAATATACATTATATATTAAATATAGATCATTTCAGGGAGCTCGAGAAACAA
# DNA 2: TTGTTTCTCGAGCTCCCTGAAATGATCTATATTTAATATATAATGTATATTCCCTCGGGATTTTTTATTTTGTGTTATTCCACGGCATGAAAAACAAAAAACATTCTTCTCATGAATTCCTTC
# Assays:
# DUE-B [1] = target: T1, DUE-B; assay: FP; saturable polarization; 2 nM oligo; 100 mM Tris pH 7.5 (printed mN), 800 mM NaCl, 10 mM EDTA; reversed by poly dI-dC; 16-epiestriol (E2850) stimulates; conditions: tags: N-terminal 6His and V5, baculovirus expressed; label: FITC at 3' end of both strands via C6 spacer
# Procedure: A mastermix is prepared consisting of 1× reaction buffer, 2 nM labeled oligo and 0.125 or 0.250 ug DUE-B per 100 ul of mastermix. Compounds (in this case steroids) are added to the bottom of a 96 well plate. 100 ul of mastermix is added to each well and allowed to equilibrate for 30 sec. Fluorescence polarization is then measured.
# In FIG. 23A, the effect of increasing concentrations of DUE-B on the polarization of dsDNA was assessed. As expected, polarization of the dsDNA becomes saturated as the DUE-B protein concentration increases. Note that at 0.125 and 0.250 μg of DUE-B a reasonable shift in polarization of dsDNA is seen. Using these set conditions (0.250 ug DUE-B), the effect of adding a non-specific DNA inhibitor (pdldC) to the reaction (FIG. 23B) was tested. […] It is observed that the polarization was stable for at least 2 hours, making this assay very feasible for high throughput screening.
# DUE-B [2] = target: T1, DUE-B; assay: EMSA; strongly retarded complex without poly dI-dC; 30 C 30 min; reduced by poly dI-dC; conditions: tags: 6His, baculovirus/Sf9 expressed, Ni-NTA; label: 32P (alpha-32P-dCTP by PCR)
# Procedure: An electrophoretic mobility shift assay (EMSA) was used to test whether the baculovirus expressed DUE-B protein could bind to DNA in vitro. When added to a radiolabeled c-myc DUE probe in the absence of nonspecific competitor (poly dI-dC), DUE-B produced a strongly retarded protein-DNA complex band (FIG. 14, lanes 1-4). […] When HeLa cell cytoplasmic extract was added to the c-myc DUE probe in the absence of poly dI-dC an intense band was observed that was not affected by the addition of DUE-B (lanes 13-16). With the addition of the nonspecific competitor poly dI-dC, however, a novel band appeared that was dependent on the addition of DUE-B (asterisks, lanes 17-24). […] Similar to the results obtained when cytosol was added to the c-myc DUE probe, when nuclear extract from HeLa cells was added to the c-myc DUE probe in the absence of poly dI-dC an intense band was observed that was not affected by the addition of DUE-B (lanes 25-28). In the presence of competitor for nonspecific binding, however, a novel band appeared that was dependent on the addition of DUE-B (brackets, lanes 32 and 36). […] In FIG. 14, a 123 bp fragment of the c-myc replication origin containing the DUE/ARS region was labeled with alpha-³²P-dCTP by PCR. 25 fmol were mixed with recombinant DUE-B purified by Ni-NTA affinity chromatography from SF9 insect cells. […]
binder,measurement,setting,value
B1,binding result,DUE-B [1],binds
B2,binding result,DUE-B [2],binds
